These results are taken from patent US20050028229A1 (published 2005).

Assay [1] deals with T1, purified human α-hemoglobin (human, UniProt P69905 2-142, heme-bound; carboxy (CO) form in interaction studies, oxy form in stability studies).
T1 construct: Holo-protein with heme; also called CO-α-hemoglobin; carboxy (CO)-α-hemoglobin
The assay can be described thus: gel filtration at various concentrations of AHSP and α-hemoglobin (data not shown). In general terms: SEC sorts molecules by how far they enter the pores of the column.

Assay [2] has as its target T1, purified human α-hemoglobin. The assay can be described thus: method not stated; told as 'discussed previously'.
Assay [3] addresses T2, purified human β-hemoglobin (human, UniProt P68871 2-147, heme-bound; carboxy (CO) form in interaction studies, oxy form in stability studies).
T2 construct: also called CO-β-hemoglobin; oxy-β-hemoglobin
In words: gel-filtration chromatography of equimolar mixtures.
Description: Duplicate strips were stained with benzidine to identify heme-containing proteins, and/or with Ponceau S to stain all proteins.

T1 sequence (P69905 2-142 limits assumed): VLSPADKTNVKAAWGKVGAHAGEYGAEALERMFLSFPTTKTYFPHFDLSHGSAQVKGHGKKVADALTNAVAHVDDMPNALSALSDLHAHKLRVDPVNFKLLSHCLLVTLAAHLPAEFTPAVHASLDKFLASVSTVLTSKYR
T2 sequence (P68871 2-147 limits assumed): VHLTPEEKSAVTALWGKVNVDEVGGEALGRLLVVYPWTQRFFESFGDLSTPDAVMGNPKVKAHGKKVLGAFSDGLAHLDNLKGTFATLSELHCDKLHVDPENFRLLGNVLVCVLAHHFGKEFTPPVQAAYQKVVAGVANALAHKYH

B1: recombinant human AHSP (Alpha Hemoglobin Stabilizing Protein) (other, UniProt Q9NZD4 1-102, looked up)
chain: MALLKANKDLISAGLKEFSVLLNQQVFNDPLVSEEDMVTVVEDWMNFYINYYRQQVTGEPQERDKALQELRQELNTLANPFLAKYRDFLKSHELPSHPPPSS
notes: species not restated there; also called EDRF; Erythroid Differentiation Related Factor
By Kd is commonly meant the equilibrium constant for the complex coming apart. Read a low Kd as higher affinity. As for B1, the Kd in assay [1] was ≤ 500 nM; in assay [2], ~100 nM. Further, the binding result in assay [3] is given as “no binding”.
